# Test results published in patent US20080248046A1 (Human Genome Sciences, published 2008).
# Key:
# [1] = molecular target: T1, DR5 expressed from an expression construct in 293 cells (immunoprecipitated with Flag M2 antibody affinity … (human, UniProt O14763 52-440)); assay: co-transfection of 293 cells, Flag M2 immunoprecipitation, immunoblot with HRP-conjugated antibody to myc
# T1 construct: The text says only 'the indicated expression constructs'; also called Death Domain Containing Receptor 5
# Source text: (§1) 293 cells were co-transfected with the indicated expression constructs using calcium phosphate precipitation.
# [2] = molecular target: T1, DR5 expressed from an expression …; assay: co-transfection of 293 cells, Flag M2 immunoprecipitation, immunoblot with polyclonal antibody to FADD
# Source text: as §1
binding result [1],binding result [2],Binder
no binding,–,"myc-tagged TRADD (other, UniProt Q15628 1-312, looked up, also called myc-TRADD) MAAGQNGHEEWVGSAYLFVESSLDKVVLSDAYAHPQQKVAVYRALQAALAESGGSPDVLQMLKIHRSDPQLIVQLRFCGRQPCGRFLRAYREGALRAALQRSLAAALAQHSVPLQLELRAGAERLDALLADEERCLSCILAQQPDRLRDEELAELEDALRNLKCGSGARGGDGEVASAPLQPPVPSLSEVKPPPPPPPAQTFLFQGQPVVNRPLSLKDQQTFARSVGLKWRKVGRSLQRGCRALRDPALDSLAYEYEREGLYEQAFQLLRRFVQAEGRRATLQRLVEALEENELTSLAEDLLGLTDPNGGLA"
–,no binding,"FADD (other, UniProt Q13158 1-208, looked up, also called FADD/MORT1) MDPFLVLLHSVSSSLSSSELTELKFLCLGRVGKRKLERVQSGLDLFSMLLEQNDLEPGHTELLRELLASLRRHDLLRRVDDFEAGAAAGAAPGEEDLCAAFNVICDNVGKDWRRLARQLKVSDTKIDSIEDRYPRNLTERVRESLRIWKNTEKENATVAHLVGALRSCQMNLVADLVQEVQQARDLQNRSGAMSPMSWNSDASTSEAS"
